These results are taken from publication PMC10177328, “High Intrinsic Oncogenic Potential in the Myc-Box-Deficient Hydra Myc3 Protein”.

The target of the data set is T1, Hydra Myc3 bHLH-LZ (p13);Hydra Max bHLH-LZ (p13) (Hydra (strain  in the text …, UniProt A0A0H5FMB4;D0EM50 108-197;29-120, |)).
T1 sequence 1: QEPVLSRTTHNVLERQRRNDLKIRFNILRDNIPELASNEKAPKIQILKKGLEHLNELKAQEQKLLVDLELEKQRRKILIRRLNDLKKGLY
T1 sequence 2: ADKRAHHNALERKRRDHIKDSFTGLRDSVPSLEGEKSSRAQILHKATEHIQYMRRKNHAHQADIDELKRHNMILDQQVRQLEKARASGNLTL
The experiment in a line: EMSA; 0-2000 nM protein; EMSA: 10 mM Tris-HCl pH 7.5, 0.5 mM EDTA, 65 mM KCl, 5 mM MgCl2, 1 mM DTT, 100 ug/mL BSA, 10% glycerol, 25 C, 45 min; native 6% PAGE. Conditions: protein: recombinant;recombinant, tags: N-terminal initiator Met, C-terminal His6;N-terminal initiator Met, copies: 1;1, label: 32P, blunt. (In general: Mobility shift assays separate free from complexed probe on a gel.)

B1: myc2 promoter E-box 18-mer (dsDNA)
DNA 1: ATAGCTCACGTGTCAATA
DNA 2: TATTGACACGTGAGCTAT
B1: the dissociation constant Kd turned out to be 16.3 nM.

One may read the Kd as the constant that tells how readily two partners part at equilibrium.
